From article PMC9555238, “Interaction of BES1 and LBD37 transcription factors modulates brassinosteroid-regulated root forging response under low nitrogen in arabidopsis” come the findings set out here.

In the data set the target is T1, LBD37 (Arabidopsis thaliana, UniProt Q9FN11 1-250).
T1 sequence: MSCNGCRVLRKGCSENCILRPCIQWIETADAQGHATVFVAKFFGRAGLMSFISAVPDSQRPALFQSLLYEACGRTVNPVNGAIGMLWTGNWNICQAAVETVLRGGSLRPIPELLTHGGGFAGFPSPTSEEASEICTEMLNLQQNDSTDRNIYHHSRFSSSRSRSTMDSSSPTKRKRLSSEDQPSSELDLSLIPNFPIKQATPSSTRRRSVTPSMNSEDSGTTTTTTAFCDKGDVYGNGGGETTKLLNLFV
Put plainly: EMSA; 5 mM HEPES-KOH pH 8.0, 50 mM KCl, 1 mM DTT, 10% glycerol, 20 uL, on ice 60 min; 5% native PAGE in TBE. To be noted: protein: recombinant; tags: MBP (N-terminal, pMAL-c2X); (LightShift chemiluminescent kit).

B1: NRT2.1 promoter probe, mutated LOB motif (dsDNA)
DNA 1: AGACTAGGAAGATGCTTGAAAAGAAAATGGATTCCTCGAAA
DNA 2: TTTCGAGGAATCCATTTTCTTTTCAAGCATCTTCCTAGTCT
With B1, the binding result is “no binding”.
